# B1: Syntaxin-12 (Homo sapiens), Q86Y82 (parent)
# chain: MSYGPLDMYRNPGPSGPQLRDFSSIIQTCSGNIQRISQATAQIKNLMSQLGTKQDSSKLQENLQQLQHSTNQLAKETNELLKELGSLPLPLSTSEQRQQRLQKERLMNDFSAALNNFQAVQRRVSEKEKESIARARAGSRLSAEERQREEQLVSFDSHEEWNQMQSQEDEVAITEQDLELIKERETAIRQLEADILDVNQIFKDLAMMIHDQGDLIDSIEANVESSEVHVERATEQLQRAAYYQKKSRKKMCILVLVLSVIILILGLIIWLVYKTK
# B2: Ropporin-1A (Homo sapiens), Q9HAT0 (parent)
# chain: MAQTDKPTCIPPELPKMLKEFAKAAIRVQPQDLIQWAADYFEALSRGETPPVRERSERVALCNRAELTPELLKILHSQVAGRLIIRAEELAQMWKVVNLPTDLFNSVMNVGRFTEEIEWLKFLALACSALGVTITKTLKIVCEVLSCDHNGGSPRIPFSTFQFLYTYIAKVDGEISASHVSRMLNYMEQEVIGPDGIITVNDFTQNPRVQLE
# B3: Coiled-coil domain-containing protein 92 (Homo sapiens), Q53HC0 (parent)
# chain: MTSPHFSSYDEGPLDVSMAATNLENQLHSAQKNLLFLQREHASTLKGLHSEIRRLQQHCTDLTYELTVKSSEQTGDGTSKSSELKKRCEELEAQLKVKENENAELLKELEQKNAMITVLENTIKEREKKYLEELKAKSHKLTLLSSELEQRASTIAYLTSQLHAAKKKLMSSSGTSDASPSGSPVLASYKPAPPKDKLPETPRRRMKKSLSAPLHPEFEEVYRFGAESRKLLLREPVDAMPDPTPFLLARESAEVHLIKERPLVIPPIASDRSGEQHSPAREKPHKAHVGVAHRIHHATPPQAQPEVKTLAVDQVNGGKVVRKHSGTDRTV
# partner: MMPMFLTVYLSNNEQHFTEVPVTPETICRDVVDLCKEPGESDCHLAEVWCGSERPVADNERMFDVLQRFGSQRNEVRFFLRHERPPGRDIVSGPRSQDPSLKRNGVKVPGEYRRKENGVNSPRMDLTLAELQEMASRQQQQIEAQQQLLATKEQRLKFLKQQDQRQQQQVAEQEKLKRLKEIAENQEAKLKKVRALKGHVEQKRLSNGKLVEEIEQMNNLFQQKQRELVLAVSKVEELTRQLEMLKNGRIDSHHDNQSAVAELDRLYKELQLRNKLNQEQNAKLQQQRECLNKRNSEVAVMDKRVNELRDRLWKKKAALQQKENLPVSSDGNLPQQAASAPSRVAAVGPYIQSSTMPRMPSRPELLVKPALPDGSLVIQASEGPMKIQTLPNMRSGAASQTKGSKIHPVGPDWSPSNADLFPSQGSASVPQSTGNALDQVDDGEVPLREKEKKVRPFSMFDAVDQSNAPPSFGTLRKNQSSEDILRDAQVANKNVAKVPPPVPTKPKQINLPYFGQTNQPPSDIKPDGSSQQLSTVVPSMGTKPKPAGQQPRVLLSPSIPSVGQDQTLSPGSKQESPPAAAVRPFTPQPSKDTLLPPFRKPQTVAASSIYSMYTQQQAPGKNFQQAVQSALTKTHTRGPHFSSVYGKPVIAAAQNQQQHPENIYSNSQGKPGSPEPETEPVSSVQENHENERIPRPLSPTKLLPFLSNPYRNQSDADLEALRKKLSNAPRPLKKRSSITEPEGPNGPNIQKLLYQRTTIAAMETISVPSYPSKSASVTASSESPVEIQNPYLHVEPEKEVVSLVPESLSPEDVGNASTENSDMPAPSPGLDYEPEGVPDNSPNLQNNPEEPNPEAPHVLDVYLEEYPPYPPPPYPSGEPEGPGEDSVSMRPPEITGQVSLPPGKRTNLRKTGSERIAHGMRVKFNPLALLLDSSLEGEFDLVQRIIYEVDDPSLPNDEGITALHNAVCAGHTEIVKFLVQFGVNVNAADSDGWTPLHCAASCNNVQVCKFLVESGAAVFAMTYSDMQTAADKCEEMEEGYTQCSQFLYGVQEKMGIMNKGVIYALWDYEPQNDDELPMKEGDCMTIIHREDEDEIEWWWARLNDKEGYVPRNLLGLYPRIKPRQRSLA
# B4: Pachytene checkpoint protein 2 homolog (Homo sapiens), Q15645 (parent)
# chain: MDEAVGDLKQALPCVAESPTVHVEVHQRGSSTAKKEDINLSVRKLLNRHNIVFGDYTWTEFDEPFLTRNVQSVSIIDTELKVKDSQPIDLSACTVALHIFQLNEDGPSSENLEEETENIIAANHWVLPAAEFHGLWDSLVYDVEVKSHLLDYVMTTLLFSDKNVNSNLITWNRVVLLHGPPGTGKTSLCKALAQKLTIRLSSRYRYGQLIEINSHSLFSKWFSESGKLVTKMFQKIQDLIDDKDALVFVLIDEVESLTAARNACRAGTEPSDAIRVVNAVLTQIDQIKRHSNVVILTTSNITEKIDVAFVDRADIKQYIGPPSAAAIFKIYLSCLEELMKCQIIYPRQQLLTLRELEMIGFIENNVSKLSLLLNDISRKSEGLSGRVLRKLPFLAHALYVQAPTVTIEGFLQALSLAVDKQFEERKKLAAYI
# partner: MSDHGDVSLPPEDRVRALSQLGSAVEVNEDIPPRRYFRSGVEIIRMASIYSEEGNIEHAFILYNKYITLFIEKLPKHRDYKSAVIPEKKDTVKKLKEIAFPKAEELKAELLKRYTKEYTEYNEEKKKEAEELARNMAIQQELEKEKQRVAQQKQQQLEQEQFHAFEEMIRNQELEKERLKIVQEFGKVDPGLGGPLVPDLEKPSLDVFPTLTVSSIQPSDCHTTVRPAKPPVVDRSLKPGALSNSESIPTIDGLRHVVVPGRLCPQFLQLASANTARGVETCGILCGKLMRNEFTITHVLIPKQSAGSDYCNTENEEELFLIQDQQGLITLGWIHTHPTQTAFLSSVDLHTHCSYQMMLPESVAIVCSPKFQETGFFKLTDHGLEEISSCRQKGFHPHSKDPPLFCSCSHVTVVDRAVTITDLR
# B5: DCC-interacting protein 13-alpha (Homo sapiens), Q9UKG1 (parent)
# chain: MPGIDKLPIEETLEDSPQTRSLLGVFEEDATAISNYMNQLYQAMHRIYDAQNELSAATHLTSKLLKEYEKQRFPLGGDDEVMSSTLQQFSKVIDELSSCHAVLSTQLADAMMFPITQFKERDLKEILTLKEVFQIASNDHDAAINRYSRLSKKRENDKVKYEVTEDVYTSRKKQHQTMMHYFCALNTLQYKKKIALLEPLLGYMQAQISFFKMGSENLNEQLEEFLANIGTSVQNVRREMDSDIETMQQTIEDLEVASDPLYVPDPDPTKFPVNRNLTRKAGYLNARNKTGLVSSTWDRQFYFTQGGNLMSQARGDVAGGLAMDIDNCSVMAVDCEDRRYCFQITSFDGKKSSILQAESKKDHEEWICTINNISKQIYLSENPEETAARVNQSALEAVTPSPSFQQRHESLRPAAGQSRPPTARTSSSGSLGSESTNLAALSLDSLVAPDTPIQFDIISPVCEDQPGQAKAFGQGGRRTNPFGESGGSTKSETEDSILHQLFIVRFLGSMEVKSDDHPDVVYETMRQILAARAIHNIFRMTESHLLVTCDCLKLIDPQTQVTRLTFPLPCVVLYATHQENKRLFGFVLRTSSGRSESNLSSVCYIFESNNEGEKICDSVGLAKQIALHAELDRRASEKQKEIERVKEKQQKELNKQKQIEKDLEEQSRLIAASSRPNQASSEGQFVVLSSSQSEESDLGEGGKKRESEA
# B6: Beta-crystallin A4 (Homo sapiens), P53673 (parent)
# chain: MTLQCTKSAGPWKMVVWDEDGFQGRRHEFTAECPSVLELGFETVRSLKVLSGAWVGFEHAGFQGQQYILERGEYPSWDAWGGNTAYPAERLTSFRPAACANHRDSRLTIFEQENFLGKKGELSDDYPSLQAMGWEGNEVGSFHVHSGAWVCSQFPGYRGFQYVLECDHHSGDYKHFREWGSHAPTFQVQSIRRIQQ
# Variants of: B1
# Conditions: with dtx2_human DTX2, Q86UW9
# dtx2_human DTX2, Q86UW9, sequence (Q86UW9 whole entry): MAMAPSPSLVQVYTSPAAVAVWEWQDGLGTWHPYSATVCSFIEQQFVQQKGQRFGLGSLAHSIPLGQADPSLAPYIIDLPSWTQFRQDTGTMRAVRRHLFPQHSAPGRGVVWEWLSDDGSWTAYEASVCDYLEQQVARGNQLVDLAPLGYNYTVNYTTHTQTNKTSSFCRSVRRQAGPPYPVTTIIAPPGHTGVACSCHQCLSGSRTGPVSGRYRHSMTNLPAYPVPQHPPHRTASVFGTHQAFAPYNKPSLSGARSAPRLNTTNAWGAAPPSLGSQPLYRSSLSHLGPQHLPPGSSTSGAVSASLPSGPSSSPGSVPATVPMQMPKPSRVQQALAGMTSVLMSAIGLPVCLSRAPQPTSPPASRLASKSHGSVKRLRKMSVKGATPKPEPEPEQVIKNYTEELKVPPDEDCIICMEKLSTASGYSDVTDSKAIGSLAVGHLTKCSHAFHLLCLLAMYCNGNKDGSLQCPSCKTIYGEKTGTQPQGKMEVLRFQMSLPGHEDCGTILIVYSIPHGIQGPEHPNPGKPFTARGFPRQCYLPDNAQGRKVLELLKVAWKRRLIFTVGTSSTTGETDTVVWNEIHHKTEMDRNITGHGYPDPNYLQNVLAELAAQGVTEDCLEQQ
row,Variant,effect of a mutation on the interaction
1,P88R,with no effect

# Variants of: B1
# Conditions: with stx4_human STX4, Q12846
# stx4_human STX4, Q12846, sequence (Q12846 whole entry): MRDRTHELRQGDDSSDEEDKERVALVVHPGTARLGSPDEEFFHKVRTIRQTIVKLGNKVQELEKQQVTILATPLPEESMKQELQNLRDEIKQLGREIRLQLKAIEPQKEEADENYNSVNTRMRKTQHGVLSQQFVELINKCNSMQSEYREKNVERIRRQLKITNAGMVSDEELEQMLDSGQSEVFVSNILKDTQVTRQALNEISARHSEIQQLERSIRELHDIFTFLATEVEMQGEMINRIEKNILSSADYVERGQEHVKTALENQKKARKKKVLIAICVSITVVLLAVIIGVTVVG
row,Variant,effect of a mutation on the interaction
1,P88R,with no effect

# Variants of: B2
# Conditions: with lnx1_human LNX1, Q8TBB1
# lnx1_human LNX1, Q8TBB1, sequence (Q8TBB1 whole entry): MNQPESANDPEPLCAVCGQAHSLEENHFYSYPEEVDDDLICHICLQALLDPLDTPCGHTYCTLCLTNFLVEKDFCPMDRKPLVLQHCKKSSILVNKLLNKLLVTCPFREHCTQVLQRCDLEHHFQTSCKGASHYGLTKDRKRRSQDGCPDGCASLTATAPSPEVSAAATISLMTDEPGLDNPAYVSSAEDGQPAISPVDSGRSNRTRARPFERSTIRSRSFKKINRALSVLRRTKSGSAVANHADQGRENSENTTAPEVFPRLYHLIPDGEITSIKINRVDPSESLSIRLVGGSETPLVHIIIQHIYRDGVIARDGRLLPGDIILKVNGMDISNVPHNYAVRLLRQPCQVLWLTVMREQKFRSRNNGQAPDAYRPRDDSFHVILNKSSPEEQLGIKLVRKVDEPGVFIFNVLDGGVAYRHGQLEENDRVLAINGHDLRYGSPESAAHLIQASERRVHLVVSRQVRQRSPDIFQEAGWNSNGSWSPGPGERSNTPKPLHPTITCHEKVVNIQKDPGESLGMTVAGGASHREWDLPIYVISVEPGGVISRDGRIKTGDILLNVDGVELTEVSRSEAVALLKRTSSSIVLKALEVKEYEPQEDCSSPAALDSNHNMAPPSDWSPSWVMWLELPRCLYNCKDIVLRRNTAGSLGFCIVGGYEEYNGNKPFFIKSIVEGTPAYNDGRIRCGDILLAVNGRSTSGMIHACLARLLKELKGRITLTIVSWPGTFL
row,Variant,effect of a mutation on the interaction
1,C62W,with no effect

# Variants of: B2
# Conditions: with hnrl1_human HNRNPUL1, Q9BUJ2
# hnrl1_human HNRNPUL1, Q9BUJ2, sequence (Q9BUJ2 whole entry): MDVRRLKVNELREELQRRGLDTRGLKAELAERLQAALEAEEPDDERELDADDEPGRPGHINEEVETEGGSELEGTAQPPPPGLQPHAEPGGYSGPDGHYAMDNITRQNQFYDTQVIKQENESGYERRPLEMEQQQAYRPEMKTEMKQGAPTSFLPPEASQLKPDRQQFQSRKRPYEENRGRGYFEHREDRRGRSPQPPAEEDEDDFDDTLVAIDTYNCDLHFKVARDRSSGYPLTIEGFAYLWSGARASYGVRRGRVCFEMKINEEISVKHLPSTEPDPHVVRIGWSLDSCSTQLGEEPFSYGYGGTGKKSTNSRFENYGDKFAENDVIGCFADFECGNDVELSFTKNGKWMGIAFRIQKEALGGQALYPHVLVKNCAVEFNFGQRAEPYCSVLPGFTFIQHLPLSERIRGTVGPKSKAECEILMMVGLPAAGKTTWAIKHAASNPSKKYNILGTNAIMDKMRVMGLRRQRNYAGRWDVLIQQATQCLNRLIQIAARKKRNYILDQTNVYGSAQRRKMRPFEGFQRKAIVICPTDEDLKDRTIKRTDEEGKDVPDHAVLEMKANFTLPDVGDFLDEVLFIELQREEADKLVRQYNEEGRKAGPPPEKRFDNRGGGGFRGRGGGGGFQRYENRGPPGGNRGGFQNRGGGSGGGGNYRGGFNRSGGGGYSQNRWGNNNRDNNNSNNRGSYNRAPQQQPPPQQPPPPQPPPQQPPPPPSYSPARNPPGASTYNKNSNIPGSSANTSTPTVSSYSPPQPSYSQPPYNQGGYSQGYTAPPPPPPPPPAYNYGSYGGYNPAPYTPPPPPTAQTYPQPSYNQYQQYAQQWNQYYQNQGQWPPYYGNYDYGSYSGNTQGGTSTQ
row,Variant,effect of a mutation on the interaction
1,C62W,with no effect

# Variants of: B2
# Conditions: with aapk1_human PRKAA1, Q13131
# aapk1_human PRKAA1, Q13131, sequence (Q13131 whole entry, looked up): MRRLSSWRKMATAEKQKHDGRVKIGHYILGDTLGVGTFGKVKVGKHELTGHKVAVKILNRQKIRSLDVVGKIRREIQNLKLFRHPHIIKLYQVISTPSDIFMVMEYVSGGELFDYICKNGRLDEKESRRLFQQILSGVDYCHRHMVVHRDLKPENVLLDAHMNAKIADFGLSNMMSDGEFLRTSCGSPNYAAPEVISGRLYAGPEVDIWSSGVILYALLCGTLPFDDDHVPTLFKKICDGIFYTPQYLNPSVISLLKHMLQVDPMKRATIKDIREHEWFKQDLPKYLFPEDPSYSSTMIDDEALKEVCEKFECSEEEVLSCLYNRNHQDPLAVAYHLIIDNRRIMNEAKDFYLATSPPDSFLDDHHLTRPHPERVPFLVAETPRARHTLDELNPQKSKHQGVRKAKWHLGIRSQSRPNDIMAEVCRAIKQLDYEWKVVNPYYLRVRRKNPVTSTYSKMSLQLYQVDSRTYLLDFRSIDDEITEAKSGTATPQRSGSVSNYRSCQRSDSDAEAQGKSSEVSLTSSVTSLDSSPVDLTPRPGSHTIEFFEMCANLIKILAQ
row,Variant,effect of a mutation on the interaction
1,C62W,with no effect

# Variants of: B3
# Conditions: with aspp2_human TP53BP2, Q13625
row,Variant,effect of a mutation on the interaction
1,S70C,with no effect

# Variants of: B4
# Conditions: with stabp_human STAMBP
row,Variant,effect of a mutation on the interaction
1,G409E,with no effect

# Variants of: B5
# Conditions: with traf2_human TRAF2, Q12933
# traf2_human TRAF2, Q12933, sequence (Q12933 whole entry): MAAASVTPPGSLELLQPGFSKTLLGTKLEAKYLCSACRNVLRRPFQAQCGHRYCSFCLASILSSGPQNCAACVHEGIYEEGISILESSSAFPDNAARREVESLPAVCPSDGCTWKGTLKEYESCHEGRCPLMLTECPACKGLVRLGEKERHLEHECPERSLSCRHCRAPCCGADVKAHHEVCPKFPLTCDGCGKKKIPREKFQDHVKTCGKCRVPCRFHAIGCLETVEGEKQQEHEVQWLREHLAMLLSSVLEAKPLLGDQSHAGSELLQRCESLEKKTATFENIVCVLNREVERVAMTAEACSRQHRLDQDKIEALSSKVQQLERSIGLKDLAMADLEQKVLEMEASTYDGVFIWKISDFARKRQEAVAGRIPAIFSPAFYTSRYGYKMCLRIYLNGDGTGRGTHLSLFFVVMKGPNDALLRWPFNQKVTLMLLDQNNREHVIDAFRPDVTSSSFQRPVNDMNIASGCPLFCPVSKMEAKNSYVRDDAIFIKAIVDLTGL
row,Variant,effect of a mutation on the interaction
1,E67G,with no effect
2,E643Q,with no effect

# Variants of: B5
# Conditions: with maga9_human MAGEA9, P43362
# maga9_human MAGEA9, P43362, sequence (P43362 whole entry): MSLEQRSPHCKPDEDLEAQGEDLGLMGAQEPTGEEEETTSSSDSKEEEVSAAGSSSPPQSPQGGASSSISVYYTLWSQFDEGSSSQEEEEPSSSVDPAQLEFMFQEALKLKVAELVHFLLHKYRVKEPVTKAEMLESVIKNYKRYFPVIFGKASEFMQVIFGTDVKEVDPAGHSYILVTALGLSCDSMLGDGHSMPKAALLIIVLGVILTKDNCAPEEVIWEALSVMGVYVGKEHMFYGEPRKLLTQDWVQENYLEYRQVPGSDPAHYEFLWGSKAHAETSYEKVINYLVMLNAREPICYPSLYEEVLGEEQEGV
row,Variant,effect of a mutation on the interaction
1,E67G,with no effect
2,E643Q,with no effect

# Variants of: B6
# Conditions: with cep76_human CEP76, Q8TAP6
# cep76_human CEP76, Q8TAP6, sequence (Q8TAP6 whole entry): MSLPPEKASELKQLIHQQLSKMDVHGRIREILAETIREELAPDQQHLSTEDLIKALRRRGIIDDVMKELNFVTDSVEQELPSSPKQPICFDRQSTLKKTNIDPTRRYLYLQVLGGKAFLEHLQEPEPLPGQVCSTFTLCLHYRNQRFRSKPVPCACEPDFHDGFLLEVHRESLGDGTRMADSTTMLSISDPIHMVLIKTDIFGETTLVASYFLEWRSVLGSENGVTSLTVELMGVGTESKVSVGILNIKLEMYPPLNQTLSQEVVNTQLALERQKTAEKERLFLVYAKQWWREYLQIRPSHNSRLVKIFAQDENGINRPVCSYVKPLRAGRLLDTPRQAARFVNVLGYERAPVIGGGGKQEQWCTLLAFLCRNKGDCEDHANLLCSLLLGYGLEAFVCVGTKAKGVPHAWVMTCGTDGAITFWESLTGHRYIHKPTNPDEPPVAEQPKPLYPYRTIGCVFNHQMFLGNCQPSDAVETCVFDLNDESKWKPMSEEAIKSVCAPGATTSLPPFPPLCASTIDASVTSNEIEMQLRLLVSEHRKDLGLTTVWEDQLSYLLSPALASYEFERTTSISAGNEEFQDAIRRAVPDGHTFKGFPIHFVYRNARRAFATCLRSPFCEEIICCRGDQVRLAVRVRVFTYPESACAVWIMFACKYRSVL
row,Variant,effect of a mutation on the interaction
1,R103C,with no effect
